# Numbering of substitutions follows the chain as printed. Marks after values point to notes of the source that are not given here.
# T1: wild type PYR1 (Arabidopsis thaliana, UniProt O49686)
# T1 construct: made in house; host or cells: E. coli BL21 [DE3]pLysS
# T1 sequence (O49686 1-191): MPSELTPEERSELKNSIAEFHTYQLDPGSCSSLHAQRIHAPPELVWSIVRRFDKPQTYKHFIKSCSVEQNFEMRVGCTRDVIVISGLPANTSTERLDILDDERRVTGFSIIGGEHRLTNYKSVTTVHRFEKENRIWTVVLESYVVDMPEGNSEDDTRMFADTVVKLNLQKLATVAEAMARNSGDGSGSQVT
# B1: PYR1*^-MANDI: PYR1 mutant with 9 mutations, most sensitive to mandipropamid (protein, listed as Arabidopsis thaliana)
# chain: T1 sequence (O49686 1-191) with Y58H, K59R, V81I, F108A, S122G, M158I, F159V, A160V, T162D
# B2: HAB1*: catalytically inactive orthogonal pentuple HAB1 mutant (protein, listed as Arabidopsis thaliana)
# chain: MTPAVAMTLSLAANTMCESSPVEITQLKNVTDAADLLSDSENQSFCNGGTECTMEDVSELEEVGEQDLLKTLSDTRSGSSNVFDEDDVLSVVEDNSAVISEGLLVVDAGSELSLSNTAMEIDNGRVLATAIIVGESSIEQVPTAEVLIAGVNQDTNTSEVVIRLPDENSNHLVKGRSVYELDCIPLWGTVSIQGNASEMEAAFAVSPHFLKLPIKMLMGDHEGMSPSLTHLTGHFFGVYDGHGGHKVADYCRDRLHFALAEEIERIKDELCKRNTGEGRQVQWDKVFTSCFLTVDGEIEGKIGRAVVGSSDKVLEAVADETVGSTAVVALVCSSHIVVSNCGDSRAVLFRGKEAMPLSVDHKPDREDEYARIENAGGKVIQWQGARVFGRLAMSRSIGDRYLKPYVIPEPEVTFMPRSREDECLILASDGLWDVMNNQEVCEIARRRILMWHKKNGAPPLAERGKGIDPACQAAADYLSMLALQKGSKDNISIIVIDLKAQAKFKTRT
# Columns and labels:
# wild type HAB1 = target: T2, wild type HAB1 (Arabidopsis thaliana, UniProt O49686+Q9CAJ0, A160V/F108A/F159V/K59R/M158I/S122G/T162D/V81I/Y58H); experiment: In vitro pull down assay with recombinant 6×-His receptor and GST-PP2C; format: binding; conditions: 10 μM mandipropamid; FIG. 8
# T2 construct: made in house; host or cells: E. coli BL21 [DE3]pLysS
# Excerpt: (§1) To characterize the orthogonal orthogonal module biochemically, we produced recombinant forms of 6×-His-PYR1*^-MANDI, 6×-His-PYR1, GST-HAB1*, and GST-HAB1 in E. coli, as described above, and tested wild type and orthogonal receptors for their ability to inhibit GST-HAB1 activity in vitro, as well as their physical interactions with one another using pull-down assays. To characterize PYR1*^-MANDI and HAB1* in vitro, we cloned PYR1*^-MANDI into pET28 to generate a 6×-His tagged receptor and cloned HAB1* into pGEX-4T-1 to create a GST-fusion protein. Recombinant 6×-His-PYR1*^-MANDI and GST-HAB1* were prepared, as described above in example 1C, and used in experiments with previously prepared 6×-His-PYR1 and GST-HAB1. To conduct pull down assays, the specified recombinant receptor and PP2C (20 and 140 μg respectively), were combined in 500 μl PP2C assay buffer (100 mM Tris-HCl (pH 7.9), 100 mM NaCl, 1 mM MnCl2, 1% 13-ME and 0.3% BSA) containing either 10 μM ABA, 10 μM mandipropamid or 1% DMSO carrier solvent as a negative control. The final protein concentrations in the reactions are 1.6 μM receptor and 3.4 μM PP2C. The reactions were incubated for 90 minutes at room temperature (RT) and 20 μl of PrepEase (USB) His-tagged protein purification resin (20 mg) was added. The resin and reaction mixtures were incubated for 30 minutes at RT with gentle shaking at 5 minute intervals. The resin was washed five times and 100 μl of SDS-PAGE buffer was added and boiled for 5 minutes. After centrifugation 20 μl of supernatant was analyzed by SDS-PAGE.
# [1] = Phosphatase activity of recombinant GST-HAB1 proteins (4-methylumbeliferyl phosphate); format: biochemical; conditions: 1 μg protein, percent control (GST-HAB1); FIG. 7
# Excerpt: In the presence of ABA, wild type PYR1 binds to HAB1 and docks into its active site, which inhibits its enzymatic activity by blocking access of substrates. To characterize the orthogonal PYR1^! and HAB1^! interaction biochemically, we produced recombinant forms of each protein in E. coli, along with the wild type form, and tested the wild type and orthogonal mutant for their ability to inhibit HAB1 and HAB1^! activities in vitro. We cloned PYR1^! into pET28 to generate 6×-His tagged receptor and cloned HAB1^! into pGEX-4T-1 to create a GST-fusion protein. The previously constructed (S.-Y. Park et al., 2009) wild type 6×-His-PYR1 and GST-HAB1 constructs were used for producing recombinant wild type proteins. The 6×-His-tagged receptors and GST-tagged PP2Cs were expressed and purified as previously described. […] The plates were read using a Victor 2 plate reader (PerkinElmer) (355 nm excitation, 460 nm emission) and assays run in triplicate. The PP2C activity values reported are expressed as percent control values, which were calculated by including the carrier solvent (1% DMSO) and the specific receptor assayed, but no ligand. […]
# To characterize HAB1^!-3 and HAB1* in vitro, we cloned them into pGEX-4T-1 to create GST-fusion proteins. […] The PP2C activity values reported are expressed as percent control (GST-HAB1) from triplicate measurements.
# wild type PYR1 = target: T1, wild type PYR1; experiment: In vitro pull down assay with recombinant 6×-His receptor and GST-PP2C; format: binding; conditions: FIG. 8
# Excerpt: as §1
# T2 sequence (O49686 whole entry Y58H/K59R/V81I/F108A/S122G/M158I/F159V/A160V/T162D): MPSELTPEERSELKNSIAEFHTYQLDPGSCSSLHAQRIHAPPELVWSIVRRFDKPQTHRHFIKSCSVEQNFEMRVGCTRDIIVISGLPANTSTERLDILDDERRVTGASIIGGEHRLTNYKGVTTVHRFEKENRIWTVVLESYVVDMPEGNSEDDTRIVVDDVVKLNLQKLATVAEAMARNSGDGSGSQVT
# T2 sequence (Q9CAJ0 23-511): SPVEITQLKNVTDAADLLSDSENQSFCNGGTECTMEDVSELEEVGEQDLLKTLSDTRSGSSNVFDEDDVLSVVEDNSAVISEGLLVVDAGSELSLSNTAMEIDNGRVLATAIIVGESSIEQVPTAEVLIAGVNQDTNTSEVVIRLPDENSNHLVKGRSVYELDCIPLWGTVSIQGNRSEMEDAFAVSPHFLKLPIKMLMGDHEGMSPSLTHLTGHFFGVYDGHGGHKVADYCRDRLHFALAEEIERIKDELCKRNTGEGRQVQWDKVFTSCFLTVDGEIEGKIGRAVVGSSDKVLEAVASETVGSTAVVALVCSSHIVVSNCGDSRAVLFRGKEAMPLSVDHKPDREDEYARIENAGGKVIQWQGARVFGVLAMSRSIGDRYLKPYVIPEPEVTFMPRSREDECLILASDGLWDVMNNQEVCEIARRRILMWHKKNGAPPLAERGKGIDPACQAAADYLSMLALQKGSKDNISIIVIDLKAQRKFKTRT
Molecule,binding to wild type HAB1 (wild type HAB1),catalytic activity in vitro [1],binding to wild type PYR1 (wild type PYR1; 10 μM ABA),binding to wild type PYR1 (wild type PYR1; 10 μM mandipropamid)
B1,can bind,–,–,–
B2,–,Neither HAB1^!-3 or HAB1* display detectable catalytic activity,does not bind,does not bind

# Source: patent US10919943B2, “Mutant proteins enabling agrochemical control of plant gene expression” (The Regents of the University of California, priority 2016, dated 2021)
